Experimental data as given in patent US20020137019A1 (NEW YORK UNIVERSITY, published 2002).

B10: ART-37 (LexA DNA binding domain fusion) (other)
chain: MKALTARQQEVFDLIRDHISQTGMPPTRAEIAQRLGFRSPNAAEEHLKALARKGVIEIVSGASRGIRLLQEEEEGLPLVGRVAAGEPLLAQQHIEGHYQVDPSLFKPNADFLLRVSGMSMKDIGIMDGDLLAVHKTQDVRNGQVVVARIDDEVTVKRLKKQGNKVELLPENSEFKPIVVDLRQQSFTIEGLAVGVIRNGDWLEFGTRARFTRGKSALLERALARPRTEVSLSAFALLSPSWYSTARAVFSVAELQSRLAALGRQVGARVLDALVAREKGARRETKVLGALLFVKGAVWKALFGKEADKLEQANDDARTFYIIEREPLINTYISVPKENSTLNCASFTAGIVEAVLTHSGFPAKVTAHWHKGTTLMIKFEEAVIARDRLEGR
notes: Clone from an LNCaP prostate cancer cell cDNA library

Columns and labels:
[1] = target: B42-AR18-500 (rat androgen receptor N-terminus, residues 18-500, fused to the B42 activation domain) (rat) (UniProt P15207); assay: cell-based or functional assay
[2] = target: T1, ART-27 (full length, 1-157; LexA DNA binding domain fusion) (human, UniProt P0A7C2 1-202; Q9UBK9 1-157); assay: modified yeast two-hybrid, liquid beta-galactosidase assay
T1 construct: also called LexA-ART-27; pEG202:ART-27

[3] = target: T2, B42-AR18-500 (rat androgen receptor N-terminus, residues 18-500, fused to the B42 activation domain) (rat, UniProt P15207 18-500); assay: modified yeast two-hybrid, plate beta-galactosidase assay
T2 construct: range 18-500; Yeast two-hybrid bait, galactose-inducible; also called AR18-500-AD; pJG4-5:AR18-500
T2 sequence (looked up): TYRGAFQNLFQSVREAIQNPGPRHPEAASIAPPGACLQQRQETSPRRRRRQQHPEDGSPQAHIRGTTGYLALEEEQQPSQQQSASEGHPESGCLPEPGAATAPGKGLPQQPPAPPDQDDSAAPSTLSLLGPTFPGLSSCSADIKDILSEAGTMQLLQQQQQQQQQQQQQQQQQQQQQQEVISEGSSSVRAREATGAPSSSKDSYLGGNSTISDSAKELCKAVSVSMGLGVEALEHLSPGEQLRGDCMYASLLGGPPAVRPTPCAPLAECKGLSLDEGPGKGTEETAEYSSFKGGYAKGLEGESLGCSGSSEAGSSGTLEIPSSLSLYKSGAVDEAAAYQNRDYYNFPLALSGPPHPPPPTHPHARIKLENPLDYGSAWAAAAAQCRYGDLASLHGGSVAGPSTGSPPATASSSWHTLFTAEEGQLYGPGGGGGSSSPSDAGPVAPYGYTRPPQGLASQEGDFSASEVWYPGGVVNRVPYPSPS

[4] = target: T1, ART-27 (full length, 1-157; LexA DNA …); assay: modified yeast interaction-trap assay, liquid beta-galactosidase
[5] = target: T3, ART-5 (LexA DNA binding domain fusion) (UniProt P0A7C2 1-202, limits assumed); assay: modified yeast two-hybrid, plate beta-galactosidase assay
T3 construct: Clone from an LNCaP prostate cancer cell cDNA library
T3 sequence: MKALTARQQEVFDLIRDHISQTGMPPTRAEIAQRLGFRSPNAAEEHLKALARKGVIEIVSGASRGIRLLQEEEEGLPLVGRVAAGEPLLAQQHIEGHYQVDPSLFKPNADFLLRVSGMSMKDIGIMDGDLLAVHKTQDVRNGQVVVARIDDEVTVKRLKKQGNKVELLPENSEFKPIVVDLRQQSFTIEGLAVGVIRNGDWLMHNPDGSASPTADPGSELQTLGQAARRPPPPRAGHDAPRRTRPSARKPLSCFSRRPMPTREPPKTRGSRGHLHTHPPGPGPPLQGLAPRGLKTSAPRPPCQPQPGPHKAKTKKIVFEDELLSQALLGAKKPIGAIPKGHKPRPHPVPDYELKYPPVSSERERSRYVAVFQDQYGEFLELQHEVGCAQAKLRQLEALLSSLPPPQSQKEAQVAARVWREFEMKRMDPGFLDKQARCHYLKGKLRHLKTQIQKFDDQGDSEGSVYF

[6] = target: T1, ART-27 (full length, 1-157; LexA DNA …); assay: as above
[7] = target: B10; assay: as above
[8] = target: T2, B42-AR18-500 (rat androgen receptor …); assay: modified yeast two-hybrid screen of a LexA-LNCaP cDNA library

“LexA vector alone (from UniProt P0A7C2 1-202)” gave a quantitative liquid beta-galactosidase assay (modified yeast two-hybrid) (unit of activity) [1] of 1.

B1: B42-AR18-156 (receptor, rat, UniProt P15207 18-156, looked up, not shown: large carriers)
chain: TYRGAFQNLFQSVREAIQNPGPRHPEAASIAPPGACLQQRQETSPRRRRRQQHPEDGSPQAHIRGTTGYLALEEEQQPSQQQSASEGHPESGCLPEPGAATAPGKGLPQQPPAPPDQDDSAAPSTLSLLGPTFPGLSSC
B1: no binding [2].

B2: LexA-ART-27 68-157 (other, UniProt P0A7C2 1-202, looked up)
chain: MKALTARQQEVFDLIRDHISQTGMPPTRAEIAQRLGFRSPNAAEEHLKALARKGVIEIVSGASRGIRLLQEEEEGLPLVGRVAAGEPLLAQQHIEGHYQVDPSLFKPNADFLLRVSGMSMKDIGIMDGDLLAVHKTQDVRNGQVVVARIDDEVTVKRLKKQGNKVELLPENSEFKPIVVDLRQQSFTIEGLAVGVIRNGDWLYMQVDLGCNFFVDTVVPDTSRIYVALGYGFFLELTLAEALKFIDRKSSLLTELSNSLTKDSMNIKAHIHMLLEGLRELQGLQNFPEKPHH
B2: no binding [3].

B3: LexA-ART-27 1-45 (other, UniProt P0A7C2 1-202, looked up)
chain: MKALTARQQEVFDLIRDHISQTGMPPTRAEIAQRLGFRSPNAAEEHLKALARKGVIEIVSGASRGIRLLQEEEEGLPLVGRVAAGEPLLAQQHIEGHYQVDPSLFKPNADFLLRVSGMSMKDIGIMDGDLLAVHKTQDVRNGQVVVARIDDEVTVKRLKKQGNKVELLPENSEFKPIVVDLRQQSFTIEGLAVGVIRNGDWLMATPPKRRAVEATGEKVLRYETFISDVLQRDLRKVLDHRDKVYEQ
notes: also called ART-27 derivative 1-45
B3: no binding [3].

B4: LexA-ART-27 127-157 (other, UniProt P0A7C2 1-202, looked up)
chain: MKALTARQQEVFDLIRDHISQTGMPPTRAEIAQRLGFRSPNAAEEHLKALARKGVIEIVSGASRGIRLLQEEEEGLPLVGRVAAGEPLLAQQHIEGHYQVDPSLFKPNADFLLRVSGMSMKDIGIMDGDLLAVHKTQDVRNGQVVVARIDDEVTVKRLKKQGNKVELLPENSEFKPIVVDLRQQSFTIEGLAVGVIRNGDWLDSMNIKAHIHMLLEGLRELQGLQNFPEKPHH
B4: no binding [3].

B5: LexA-ART-27 1-67 (other, UniProt P0A7C2 1-202, looked up)
chain: MKALTARQQEVFDLIRDHISQTGMPPTRAEIAQRLGFRSPNAAEEHLKALARKGVIEIVSGASRGIRLLQEEEEGLPLVGRVAAGEPLLAQQHIEGHYQVDPSLFKPNADFLLRVSGMSMKDIGIMDGDLLAVHKTQDVRNGQVVVARIDDEVTVKRLKKQGNKVELLPENSEFKPIVVDLRQQSFTIEGLAVGVIRNGDWLMATPPKRRAVEATGEKVLRYETFISDVLQRDLRKVLDHRDKVYEQLAKYLQLRNVIERLQEAKHSEL
notes: also called ART-27 derivative 1-67
B5: no binding [3].

B6: B42-AR153-336 (receptor, rat, UniProt P15207 153-336, looked up, not shown: large carriers)
chain: LSSCSADIKDILSEAGTMQLLQQQQQQQQQQQQQQQQQQQQQQEVISEGSSSVRAREATGAPSSSKDSYLGGNSTISDSAKELCKAVSVSMGLGVEALEHLSPGEQLRGDCMYASLLGGPPAVRPTPCAPLAECKGLSLDEGPGKGTEETAEYSSFKGGYAKGLEGESLGCSGSSEAGSSGTLE
B6: binds [4].

B7: LexA-ART-27 1-45/127-157 (other, UniProt P0A7C2 1-202, looked up)
chain: MKALTARQQEVFDLIRDHISQTGMPPTRAEIAQRLGFRSPNAAEEHLKALARKGVIEIVSGASRGIRLLQEEEEGLPLVGRVAAGEPLLAQQHIEGHYQVDPSLFKPNADFLLRVSGMSMKDIGIMDGDLLAVHKTQDVRNGQVVVARIDDEVTVKRLKKQGNKVELLPENSEFKPIVVDLRQQSFTIEGLAVGVIRNGDWLMATPPKRRAVEATGEKVLRYETFISDVLQRDLRKVLDHRDKVYEQDSMNIKAHIHMLLEGLRELQGLQNFPEKPHH
notes: The two fragments were joined through a BamHI site
B7: no binding [3].

B8: rat AR ligand binding domain (AR579-901) in pJG4-5 (receptor, UniProt P15207 579-901, looked up, not shown: large carriers)
chain: ASRNDCTIDKFRRKNCPSCRLRKCYEAGMTLGARKLKKLGNLKLQEEGENSSAGSPTEDPSQKMTVSHIEGYECQPIFLNVLEAIEPGVVCAGHDNNQPDSFAALLSSLNELGERQLVHVVKWAKALPGFRNLHVDDQMAVIQYSWMGLMVFAMGWRSFTNVNSRMLYFAPDLVFNEYRMHKSRMYSQCVRMRHLSQEFGWLQITPQEFLCMKALLLFSIIPVDGLKNQKFFDELRMNYIKELDRIIACKRKNPTSCSRRFYQLTKLLDSVQPIARELHQFTFDLLIKSHMVSVDFPEMMAEIISVQVPKILSGKVKPIYFHT
notes: range 579-901
B8: no binding [5]; no binding [6]; no binding [7].

B9: LexA-ART-27 46-157 (other, UniProt P0A7C2 1-202, looked up)
chain: MKALTARQQEVFDLIRDHISQTGMPPTRAEIAQRLGFRSPNAAEEHLKALARKGVIEIVSGASRGIRLLQEEEEGLPLVGRVAAGEPLLAQQHIEGHYQVDPSLFKPNADFLLRVSGMSMKDIGIMDGDLLAVHKTQDVRNGQVVVARIDDEVTVKRLKKQGNKVELLPENSEFKPIVVDLRQQSFTIEGLAVGVIRNGDWLLAKYLQLRNVIERLQEAKHSELYMQVDLGCNFFVDTVVPDTSRIYVALGYGFFLELTLAEALKFIDRKSSLLTELSNSLTKDSMNIKAHIHMLLEGLRELQGLQNFPEKPHH
B9: no binding [3].

B10: binds [8].
